Source: doi:10.1101/477745, “The (p)ppGpp-binding GTPase Era promotes rRNA processing and cold shock survival in Staphylococcus aureus” (bioRxiv, 2019)

T1: Era fused to SB (small bit of luciferase) (S. aureus, UniProt Q2FGF6 1-299)
T1 construct: GTPase Era, Staphylococcus aureus; For the Era-Era pair the second copy of Era was fused to the large bit (LB); also called EraSB; full-length Era; source: S. aureus LAC*, expressed from pAP118 with Atet, in cells
T1 sequence (looked up): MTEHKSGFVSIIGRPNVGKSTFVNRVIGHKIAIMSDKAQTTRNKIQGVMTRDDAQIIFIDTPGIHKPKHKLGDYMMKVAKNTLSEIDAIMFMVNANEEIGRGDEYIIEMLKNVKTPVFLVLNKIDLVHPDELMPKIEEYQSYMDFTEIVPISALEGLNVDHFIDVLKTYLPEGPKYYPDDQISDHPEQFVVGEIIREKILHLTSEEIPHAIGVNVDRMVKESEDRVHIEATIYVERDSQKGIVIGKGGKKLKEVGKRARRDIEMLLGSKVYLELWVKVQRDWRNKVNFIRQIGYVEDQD

B1: full-length CshA fused to LB (large bit of luciferase) (natural protein, S. aureus, UniProt Q2FF45 1-506, looked up)
chain: MQNFKELGISDNTVQSLESMGFKEPTPIQKDSIPYALQGIDILGQAQTGTGKTGAFGIPLIEKVVGKQGVQSLILAPTRELAMQVAEQLREFSRGQGVQVVTVFGGMPIERQIKALKKGPQIVVGTPGRVIDHLNRRTLKTDGIHTLILDEADEMMNMGFIDDMRFIMDKIPAVQRQTMLFSATMPKAIQALVQQFMKSPKIIKTMNNEMSDPQIEEFYTIVKELEKFDTFTNFLDVHQPELAIVFGRTKRRVDELTSALISKGYKAEGLHGDITQAKRLEVLKKFKNDQINILVATDVAARGLDISGVSHVYNFDIPQDTESYTHRIGRTGRAGKEGIAVTFVNPIEMDYIRQIEDANGRKMSALRPPHRKEVLQAREDDIKEKVENWMSKESESRLKRISTELLNEYNDVDLVAALLQELVEANDEVEVQLTFEKPLSRKGRNGKPSGSRNRNSKRGNPKFDSKSKRSKGYSSKKKSTKKFDRKEKSSGGSRPMKGRTFADHQK
notes: DEAD-box RNA helicase CshA, Staphylococcus aureus, 506 residues by the printed domain limits; also called CshALB; source: S. aureus LAC*, expressed from pAP118 with Atet, in cells
B2: His-tagged Era (natural protein, S. aureus, UniProt Q2FGF6 1-299, looked up)
chain: T1 sequence (looked up)
notes: GTPase Era, Staphylococcus aureus; also called His-Era; recombinant Era

How the values were obtained:
[1] = biological target: T1, Era fused to SB (small bit of …); assay: split reporter (BiFC, NanoBiT); split luciferase (SB and LB fusions from pAP118) in S. aureus LAC*; 100 ng/ml Atet for 90 min, normalised to OD600 0.1, Nano-Glo; luminescence relative to a control with one fusion only; conditions: partners not purified
[2] = biological target: T2, GST-CshA (S. aureus, UniProt Q2FF45 1-506); assay: pull-down; 1 uM GST or GST fusion coupled to glutathione beads; incubated with His-tagged protein (printed 1 pM) in 25 mM Tris pH 7.5, 150 mM NaCl, 5 mM MgCl2, 0.5% Triton X-100 at 4°C overnight; eluted with glutathione; blot with anti-His-HRP; conditions: both partners purified
T2 construct: DEAD-box RNA helicase CshA, Staphylococcus aureus; also called GST-tagged CshA; not shown: GST, N-terminal, kept

| Binder | fold increase in luciferase activity [1] | binding result [2] |
| --- | --- | --- |
| B1 | 4 fold |  |
| B2 |  | binds |
